Substrate in the series: Nc1c(S(=O)(=O)O)cc(Nc2cccc(S(=O)(=O)CCOS(=O)(=O)O)c2)c2c1C(=O)c1ccccc1C2=O
In words: purified protein. The note with it: 100 µM H2O2, 100 mM citrate pH 5, 50 nM enzyme, His-SUMO fusion. It counts as biochemical, Actinotalea bogoriensis.

B1: CboDyP (Actinotalea bogoriensis 69B4 = DSM 16987) (protein)
chain: VGAGAGARWGSRAPEAPQPARAAGPGDVVVPCHGEHQAGIVTPPPSFIALVALDLASTSDRASVERLLRVWTVDIERLTTGRPGLADSEPELALVPAALTVTVGFGPGLLTAAGLRHRAPAWLHPLPPFGIDRLDPAWCDGDVVLQVCADDRTTLAHAVRVLTKEAQGLASVRWVQRGFRRSPGISEPDGTSMRNLMGQVEGTANLDPRTDPDLLWHRDGEPGWLTGGTSMVVRRIAMNLDTWDELSRGAREATIGRTLRTGAPLTGRAEHDEPDLEALDDHGRPVIDLEAHIRRARPTQREETFLRRAYNYDEAPPPGRASDSGLLFVTYQRDVDAQFTPVQRRLDAADLLNEWTFPVGSAVFAVPGGWSAGEYVGQRLLEG
notes: codon-optimized synthetic gene, recombinant in E. coli NEB 10-beta; N-terminal His-SUMO fusion kept for kinetics, SUMO cleaved for crystals; Tat signal predicted, first 22 residues not visible in crystal; heme-containing; motif GXXEG
Broadly, the Km is the substrate concentration at which the rate is half of its maximum. In general, kcat refers to the number of substrate molecules converted per active site and unit of time at saturation. Consider B1, for which the Km is on record as 17 µM and the kcat worked out at 0.22 s⁻¹.

B2: CboDyP (Actinotalea bogoriensis 69B4 = DSM 16987; E205D) (protein)
chain: VGAGAGARWGSRAPEAPQPARAAGPGDVVVPCHGEHQAGIVTPPPSFIALVALDLASTSDRASVERLLRVWTVDIERLTTGRPGLADSEPELALVPAALTVTVGFGPGLLTAAGLRHRAPAWLHPLPPFGIDRLDPAWCDGDVVLQVCADDRTTLAHAVRVLTKEAQGLASVRWVQRGFRRSPGISEPDGTSMRNLMGQVDGTANLDPRTDPDLLWHRDGEPGWLTGGTSMVVRRIAMNLDTWDELSRGAREATIGRTLRTGAPLTGRAEHDEPDLEALDDHGRPVIDLEAHIRRARPTQREETFLRRAYNYDEAPPPGRASDSGLLFVTYQRDVDAQFTPVQRRLDAADLLNEWTFPVGSAVFAVPGGWSAGEYVGQRLLEG
notes: as for B1
On to B2, for which the Km is given as 36 µM and the kcat turned out to be 2.88 s⁻¹.
